Legend:
GFP = GFP (UniProt P42212); conditions: RNA transcript; printed sequence is the DNA template strand (RNA is its reverse complement); microcolumn qPCR recovery fit by simulation; non-specific background binding
hHSF1 [1] = target: T1, hHSF1 (Homo sapiens, UniProt Q00613 Q00613:1-529); assay: EMSA; room temperature 2 h, 10 ug/ml tRNA; confirmed by FP (FIG. 22A); exact value only in figure; conditions: tags: N-terminal GST; E. coli BL21(DE3)-RIPL; label: 3'-fluorescein (5-thiosemicarbazide)
T1 sequence (Q00613 whole entry, one chain of several): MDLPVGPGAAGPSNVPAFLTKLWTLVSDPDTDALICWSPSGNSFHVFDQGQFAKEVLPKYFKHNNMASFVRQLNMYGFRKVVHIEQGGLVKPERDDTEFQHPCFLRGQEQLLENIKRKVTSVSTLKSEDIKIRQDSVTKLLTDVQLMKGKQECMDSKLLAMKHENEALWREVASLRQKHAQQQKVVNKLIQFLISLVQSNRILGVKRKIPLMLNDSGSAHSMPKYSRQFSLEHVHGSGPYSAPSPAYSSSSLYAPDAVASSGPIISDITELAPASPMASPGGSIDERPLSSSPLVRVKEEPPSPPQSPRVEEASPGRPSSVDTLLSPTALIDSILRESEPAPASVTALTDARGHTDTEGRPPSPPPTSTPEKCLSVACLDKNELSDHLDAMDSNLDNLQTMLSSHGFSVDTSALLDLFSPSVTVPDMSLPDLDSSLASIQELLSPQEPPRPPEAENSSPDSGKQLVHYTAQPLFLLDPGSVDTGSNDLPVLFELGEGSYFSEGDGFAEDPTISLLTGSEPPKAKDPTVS
Description: (§1) The candidate aptamers were 3′-end labeled with fluorescein 5-thiosemicarbazide (Invitrogen) as described previously (Ref. 16). 50 μL binding reactions were prepared with 2 nM fluorescently-labeled RNA and decreasing amounts of protein (2000 to 0 nM) in binding buffer containing 0.01% IGEPAL CA630, 10 μg/ml tRNA, and 3U of SUPERase•In RNase Inhibitor (Invitrogen). […] The gel was run for 80 minutes at 100 volts in refrigerated 0.5×TBE. Images were acquired using the fluorescein scan settings on a Typhoon 9400 imager (GE Healthcare Life Sciences). The resulting bands were quantified with ImageQuant software and the data was fit to the Hill equation using Igor (Wavemetrics) to estimate the equilibrium dissociation constant (KD).
(§2) The putative RNA aptamers were fluorescently end-labeled and then tested for binding to their hHSF targets using F-EMSA and FP assays (Ref. 16). An image of a typical F-EMSA result is shown in FIG. 17A for hHSF1-R5-1 aptamer binding to hHSF1 protein. […] The F-EMSA results were confirmed by the FP assays (FIGS. 22 and 23). Thus, the observed binding is not due to the affinity tags on the protein targets but rather specific domains of the targets themselves.

GST tag [2] = target: T2, GST tag (UniProt P08515 P08515:1-218); assay: EMSA; no binding to GST tag alone; FP FIG. 22D; conditions: tags: GST tag alone, ~30 kDa; label: 3'-fluorescein (5-thiosemicarbazide)
T2 sequence (P08515 whole entry, one chain of several): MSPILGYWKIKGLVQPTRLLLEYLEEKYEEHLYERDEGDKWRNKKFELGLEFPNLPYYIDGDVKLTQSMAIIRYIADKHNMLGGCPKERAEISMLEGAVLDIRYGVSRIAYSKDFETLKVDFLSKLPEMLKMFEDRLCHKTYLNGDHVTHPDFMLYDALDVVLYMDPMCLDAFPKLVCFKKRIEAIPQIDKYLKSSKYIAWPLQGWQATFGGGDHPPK
Description: as §1, §2

hHSF2 [3] = target: T3, hHSF2 (Homo sapiens, UniProt Q03933 Q03933:1-536); assay: EMSA; confirmed by FP (FIG. 22B); exact value only in figure; conditions: tags: N-terminal GST; E. coli BL21(DE3)-RIPL; label: 3'-fluorescein (5-thiosemicarbazide)
T3 sequence (Q03933 whole entry, one chain of several): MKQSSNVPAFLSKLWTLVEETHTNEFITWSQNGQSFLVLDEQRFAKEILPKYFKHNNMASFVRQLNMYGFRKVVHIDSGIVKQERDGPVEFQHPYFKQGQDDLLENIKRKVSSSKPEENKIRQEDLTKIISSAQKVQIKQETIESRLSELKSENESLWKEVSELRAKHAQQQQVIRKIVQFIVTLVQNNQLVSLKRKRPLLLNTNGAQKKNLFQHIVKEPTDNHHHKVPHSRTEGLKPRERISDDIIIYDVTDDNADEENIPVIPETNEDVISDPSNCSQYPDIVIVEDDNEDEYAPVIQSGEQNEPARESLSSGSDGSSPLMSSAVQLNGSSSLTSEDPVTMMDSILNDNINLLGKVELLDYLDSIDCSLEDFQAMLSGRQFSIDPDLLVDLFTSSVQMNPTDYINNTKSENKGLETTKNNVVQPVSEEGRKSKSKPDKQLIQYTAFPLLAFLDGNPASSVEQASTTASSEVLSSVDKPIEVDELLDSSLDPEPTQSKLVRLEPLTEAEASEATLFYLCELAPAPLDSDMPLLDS
Description: as §1, §2

hHSF2 [4] = target: T3, hHSF2; assay: EMSA; room temperature 2 h, 10 ug/ml tRNA; confirmed by FP (FIG. 23B); exact value only in figure; conditions: tags: N-terminal GST; E. coli BL21(DE3)-RIPL; label: 3'-fluorescein (5-thiosemicarbazide)
Description: as §1, §2

GST tag [5] = target: T2, GST tag; assay: EMSA; no binding to GST tag alone; FP FIG. 23D; conditions: tags: GST tag alone, ~30 kDa; label: 3'-fluorescein (5-thiosemicarbazide)
Description: as §1, §2

hHSF1 [6] = target: T1, hHSF1; assay: EMSA; confirmed by FP (FIG. 23A); exact value only in figure; conditions: tags: N-terminal GST; E. coli BL21(DE3)-RIPL; label: 3'-fluorescein (5-thiosemicarbazide)
Description: as §1, §2

Q: With “AAGCUUCGUCAAGUCUGCAGUGAANNNNNNNNNNNNNNNNNNNNNNNNNNNNNNNNNNNNNNNNNNNNNNNNNNNNNNNNNNNNNNNNNNNNNNGAAUUCGUAGAUGUGGAUCCAUUCCC [N70 random RNA library]” as the molecule, how does the Kd (GFP) read?
A: > 10000 nM

B1: hHSF1-R5-1 (ssRNA)
RNA: GGGAAUGGAUCCACAUCUACGAAUUCAAUCAAGUCCCCAGACUCAGCAACACUGGACAGCGAUAUGCAGAUAACCAAGACCAAUUCACUCCAGUUCACUGCAGACUUGACGAAGCUU
Q: With B1 as the molecule, how does the Kd (hHSF1 [1]) read?
A: < 20 nM

Q: Does B1 bind (GST tag [2])?
A: no binding

Q: What about the Kd (hHSF2 [3]) of the same molecule?
A: < 20 nM

B2: hHSF2-R5-2 (ssRNA)
RNA: B1 RNA
Q: What does the source list for B2?
A: Kd (hHSF2 [4]): < 20 nM; binding result (GST tag [5]): no binding; Kd (hHSF1 [6]): < 20 nM
